Results: article PMC11761039

Key:
[1] = target: MBP-tagged G2L4 RT dimer interface Thumb mutant (R397/R398/R404A); test: native gel or EMSA
[2] = target: MBP-tagged wild-type G2L4 RT; test: SEC
[3] = target: MBP-tagged G2L4 RT dimer interface NTE + Thumb mutant (R12/Y15/R398A); test: native gel or EMSA

## MBP-tagged G2L4 RT dimer interface Thumb mutant (R397/R398/R404A) (enzyme)
[1]
  proportion of monomers: 25%

## MBP-tagged wild-type G2L4 RT (enzyme)
[2]
  stoichiometry N: 2

## MBP-tagged G2L4 RT dimer interface NTE + Thumb mutant (R12/Y15/R398A) (enzyme)
[3]
  proportion of monomers: 36%
